{"source": "patent US20250222112A1", "target": "soluble ectodomain from HSV-2 glycoprotein D (amino acids 26-331) containing a 6-histidine tag (herpes simplex virus 2 (HSV-2)) (UniProt Q69467)", "sequence (Q69467 26-331, tags left off)": "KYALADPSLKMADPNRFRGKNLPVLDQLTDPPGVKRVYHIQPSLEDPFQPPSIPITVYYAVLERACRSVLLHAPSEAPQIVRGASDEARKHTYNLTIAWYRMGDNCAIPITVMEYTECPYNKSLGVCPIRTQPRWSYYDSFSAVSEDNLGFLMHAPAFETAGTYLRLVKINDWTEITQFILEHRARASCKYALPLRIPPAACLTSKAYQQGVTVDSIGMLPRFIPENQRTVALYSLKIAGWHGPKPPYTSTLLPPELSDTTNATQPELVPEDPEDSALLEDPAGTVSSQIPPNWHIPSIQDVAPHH", "test": "ELISA, gD-6H coated at 15 µg/ml, HSV8 in 5-fold dilutions from 10 µg/ml, anti-human IgG-HRP", "data": [{"substance": "human IgG1 monoclonal antibody HSV8", "values": [{"measurement": "lowest concentration with robust binding", "result": 3, "unit": "nM"}]}]}
